From patent US7250304B2, “Functional assay of high-density lipoprotein” (The Regents of the University of California, priority 2000, dated 2007)

What was measured:
[1] = system: human artery wall cell cocultures; test: LDL oxidation by human artery wall cell cocultures (lipid hydroperoxides); assay type: cell-based
Experimental: (§1) The wells of the microtiter plates were treated with 0.1% gelatin at 37° C. overnight. HASMC were added at a confluent density of 1×10^5 cells/cm^2. Cells were cultured for 2 d at which time they had covered the entire surface of the well and had produced a substantial amount of extracellular matrix. HAEC were subsequently added at 2×10^5 cells/cm^2 and were allowed to grow forming a complete monolayer of confluent HAEC in 2 d. In all experiments, HAEC and autologous HASMC (from the same donor) were used at passage levels of four to six.
In general, the cocultures were treated with native LDL (250 μg/ml) in the absence or presence of HDL for 8 h. The supernatants were collected and used for determination of lipid hydroperoxide levels. The cocultures were subsequently washed and fresh culture medium 199 (M199) without any additions was added and incubated for an additional 8 hrs. This allowed the collection of monocyte chemotactic activity released by the cells as a result of stimulation by the oxidized LDL. At the end of incubation, the supernatants were collected from cocultures, diluted 40-fold, and assayed for monocyte chemotactic activity. […] The number of migrated monocytes was determined microscopically and expressed as the mean±SD of 12 standardized high power fields counted in quadruple wells.
Statistical significance was determined by model 1 ANOVA. […]

[2] = system: Ox-PAPC, POVPC, PGPC, PEIPC; assay type: cell-based, human
[3] = system: human artery wall cell cocultures; test: Monocyte chemotaxis assay on coculture conditioned medium; assay type: cell-based; conditions: cocultures incubated 8 hrs with agent, agent removed before LDL
Experimental: as §1
Monocytes were isolated using a modification of the Recalde method as previously described (Fogelman et al. (1988) J. Lipid Res. 29: 1243-1247) from the blood of normal volunteers after obtaining written consent under a protocol approved by the human research subject protection committee of the University of California, Los Angeles.
In general, the cocultures were treated with native LDL (250 μg/ml) in the absence or presence of HDL for 8 h. The supernatants were collected and used for determination of lipid hydroperoxide levels. The cocultures were subsequently washed and fresh culture medium 199 (M199) without any additions was added and incubated for an additional 8 hrs. […] The number of migrated monocytes was determined microscopically and expressed as the mean±SD of 12 standardized high power fields counted in quadruple wells.

B1: PON: purified human paraoxonase, HDL associated enzyme (protein, UniProt P27169 2-355, looked up)
Serum …: AKLIALTLLGMGLALFRNHQSSYQTRLNALREVQPVELPNCNLVKGIETGSEDLEILPNGLAFISSGLKYPGIKSFNPNSPGKILLMDLNEEDPTVLELGITGSKFDVSSFNPHGISTFTDEDNAMYLLVVNHPDAKSTVELFKFQEEEKSLLHLKTIRHKLLPNLNDIVAVGPEHFYGTNDHYFLDPYLQSWEMYLGLAWSYVVYYSPSEVRVVAEGFDFANGINISPDGKYVYIAELLAHKIHVYEKHANWTLTPLKSLDFNTLVDNISVDPETGDLWVGCHPNGMKIFFYDSENPPASEVLRIQNILTEEPKVTQVYAENGTVLQGSTVASVYKGKLLIGTVFHKALYCEL
Q: With B1 as the molecule, how does the “ability of pretreated artery wall cocultures to oxidize LDL” value ([1]; cocultures incubated 8 hrs with agent, agent removed before LDL 250 μg/ml) read?
A: rendered the artery wall cells incapable of oxidizing IDL

Q: And the “oxidation by artery wall cells of LDL pre-incubated with the agent” value ([1]; human LDL incubated with agent, re-isolated, then cocultures 8 hrs)?
A: rendered the LDL resistant to oxidation

Q: What about the “biologic activity (induction of monocyte chemotactic activity) of Ox-PAPC, POVPC, PGPC, PEIPC after incubation with enzyme” value [2] of the same molecule?
A: destruction of the biologic activity of each

Q: And the “LDL-induced monocyte chemotaxis in pretreated cocultures” value [3]?
A: prevented LDL-induced monocyte chemotaxis
